# Literature values as cited in patent publication US20170136096A1, “Insulin-Containing Prolonged-Action Preparation” (OBSCHESTVO S OGRANCHENNOJ OTVETCTVENNOSTU "BIOSABTEK", priority 2014, published 2017).
# Details: administered under the skin, injection solution pH 4
substance,measurement,value
glargine,duration of flat time-concentration profile,≤ 24 h
